This is an account of results in US20220017618A1 (JIANGSU HENGRUI MEDICINE, published 2022).

Assay [1] deals with T1, TIM-3 extracellular region with Flag and His tags: TIM-3-Flag-His (human).
T1 construct: The template is UniProt Q8TDQ0 (printed); also called human TIM-3; HAVCR2
As to the kind of experiment: TIM-3 binding ELISA, hybridoma screening (clones positive for protein binding). Background: In an ELISA, binding on a coated surface is turned into a signal by an enzyme label.

The target of assay [2] is T2, Full-length TIM-3 (TIM-3-full length) on TIM-3-overexpressing cells (human, UniProt Q8TDQ0 22-301).
T2 construct: It was used to construct the TIM-3-overexpressing cell lines; The template is UniProt Q8TDQ0 (printed); also called human TIM-3; HAVCR2
Nature of the assay: binding to TIM-3-overexpressing cells, hybridoma screening (clones positive for cell binding).

B1: mAb-1799 (antibody, V domains shown)
VH: EVKLVESEGGLVQPGSSMKLSCTASGFTFSDYYMAWVRQVPEKGLEWVANINYDGSSTYYLDSLKSRFIISRDNAKNILYLQMNSLKSDDTATYYCARDVGYYGGNYGFAYWGQGTLVTVSA
VL: DIQMTQSPASLSASVGETVTITCRASDNIYSYLAWYQQKQGKSPQLLVYNAKTLAEGVPSRFSGSGSGTQFSLKINSLQPEDFGSYYCQQHYGSPLTFGAGTKLELK
notes: Murine antibody secreted by a hybridoma
For B1, the binding result in assay [1] and in assay [2] was “binds” in each case.
